# Assay results reported in patent US20140370516, “DIAGNOSIS OF TUBERCULOSIS” (CSIR, published 2014).
# T1: EsxGH heterodimer (ESX-3 secretion system) (UniProt O53692;P9WNK3 O53692:2-97,P9WNK3:1-96)
# T1 sequence 1: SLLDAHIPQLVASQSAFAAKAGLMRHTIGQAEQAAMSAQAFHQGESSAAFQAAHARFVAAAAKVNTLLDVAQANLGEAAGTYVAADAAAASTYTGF
# T1 sequence 2: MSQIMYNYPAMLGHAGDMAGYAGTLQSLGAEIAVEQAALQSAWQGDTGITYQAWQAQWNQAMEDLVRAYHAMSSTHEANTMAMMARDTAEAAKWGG
# Columns and labels:
# [1] = target: T1, EsxGH heterodimer (ESX-3 secretion …); test: ELONA; details: label: biotin
# Experimental: (§1) For each binding assay, 96 well micro-titre plates (Corning, Adcock Ingram) were coated with the CFP-10.ESAT-6 heterodimer in a 10 mM NaHCO₃ buffer pH 8.5 (Sigma) and left overnight at 4° C. The plates were then washed with 1× phosphate buffered saline containing 0.005% Tween 20 (PBS-T) pH7 (Sigma) and blocked with a 5% fat free milk solution for 1 hour at 4° C. The plates were then washed 3 times with a 1×PBS after which 150 nM biotinylated aptamer was added and incubated for 2 hours at room temperature. This was followed by three wash steps with 1×PBS-T and the addition to HRP-conjugated streptavidin (diluted 1:10000 in 1×PBS-T) and incubated for two hours at 37° C. The plates were then washed four more times with 1×PBS-T, after which a final 3,3′,5,5′-tetramethylbenzidine (TMB) detection substrate (Separations) was added. […] The reaction was stopped with a 2 M sulphuric acid solution (Merck), resulting in a colour change from blue to yellow. The plates were read on the MultiSkan Go plate reader (ThermoScientific, AEC-Amersham) at a wavelength of 450 nm. […] Each aptamer was done in triplicate and the repeats were averaged and the standard deviation calculated. Each aptamer was tested twice in triplicate to ensure accuracy. The aptamers were then compared to the aptamer alone control using a Student t-test statistical analysis to obtain the p value for significance.
# (§2) Selected ssDNA aptamers were tested for binding specificity to the ESAT-6 and CFP-10 monomers. The aptamers were tested for binding using ELONA to CFP-10, ESAT-6, CFP-10.ESAT-6 heterodimer, a CFP-10.ESAT-6 related protein in the ESX3 secretion system (EsxGH complex) and a HIV surface glycoprotein (gp120). EsxGH is an ESAT-6 family related protein that is encoded and secreted by the ESX-3 secretion system and gp120 is a HIV glycoprotein which is unrelated to the Mtb antigens.
# ESAT-6 (monomer) = ESAT-6 (monomer) (Mycobacterium tuberculosis, UniProt P9WNK7 P9WNK7:2-95); test: ELONA; details: label: biotin
# Experimental: as §1, §2
# CFP-10 (monomer) [2] = target: T2, CFP-10 (monomer) (Mycobacterium tuberculosis, UniProt P9WNK5 P9WNK5:2-100); test: SPR; CFP-10 immobilised on CM5 chip; details: label: biotin
# Experimental: (§3) FIG. 7 illustrates kinetic studies of 5 of the best aptamers. CFP-10 attached to a CM5 chip was used to capture the respective anti-CFP-10.ESAT-6 aptamers. The respective aptamers were injected at different concentrations at a flow rate of 10 μl/min for 5 minutes and allowed to dissociate for 10 minutes;
# (§4) To determine the binding affinity of aptamers to the M.tb antigens, all four flow cells on a CM5 chip (BIAcore, Separations Scientific) were activated with EDC:NHS (BIAcore, Separations Scientific). CFP-10 was bound to three of the four flow cells by injecting 50 μl of 50 μg/ml CFP-10 over them. Ethanolamine (BIAcore, Separations Scientific) was then injected over all four flow cells to quench any remaining active sites. Partially bound or unbound protein was removed by a wash with 10 μl of a 10 mM NaOH solution. Different concentrations of the respective aptamers (0 nM, 31 nM, 62 nM, 125 nM, 250 nM, and 500 nM) were randomly injected over all four flow cells at a flow rate of 10 μl/min for 5 minutes. The respective aptamers, were then allowed to dissociate for 10 minutes. […] The evaluation was done using BiaEvaluation Software (BIAcore) to determine the KD values for each flow cell. The average dissociation constant was then determined.
# CFP-10 (monomer) [3] = target: T2, CFP-10 (monomer); test: ELONA, 150 nM aptamer; details: label: biotin
# [4] = target: T3, CFP-10.ESAT-6 heterodimer (Mycobacterium tuberculosis, UniProt P9WNK5;P9WNK7 P9WNK5:2-100,P9WNK7:2-95); test: ELONA, 150 nM aptamer; binding abrogated by anti-ESAT-6 mAb; details: label: biotin
# Experimental: as §1, with “The assay was modified from an ELISA protocols for determination of aptamer-protein interactions and has been termed an ELONA. Unique aptamer clones identified by sequencing were tested for their individual binding characteristic to the CFP-10.ESAT-6 heterodimer using an ELONA. Each ssDNA aptamer was prepared using the exonuclease method as described above with minor modifications, in that all aptamers were prepared with the biotinylated forward primer. For” for “For”
# The antibody competition binding was done using the ELONA method described above with minor modifications.
# CFP-10 (monomer) [5] = target: T2, CFP-10 (monomer); test: SPR; CFP-10 immobilised on CM5 chip, BIAcore 3000; details: label: biotin; two predicted stem-loops
# Experimental: as §3, §4
# CFP-10 (monomer) [6] = target: T2, CFP-10 (monomer); test: ELONA, 150 nM aptamer; SPR also run, Kd not given; details: label: biotin
# CFP-10 (monomer) [7] = target: T2, CFP-10 (monomer); test: SPR; CFP-10 immobilised on CM5 chip; also bound in ELONA; details: label: biotin; three predicted stem-loops
# Experimental: as §3, §4
# [8] = target: T3, CFP-10.ESAT-6 heterodimer; test: ELONA; slightly higher affinity than 90-mer (P<0.05); details: two predicted stem-loops
# CFP-10 (monomer) [9] = target: T2, CFP-10 (monomer); test: ELONA; affinity comparable to 90-mer; details: two predicted stem-loops
binder,measurement,setting,value
CSIR 2.2 (ssDNA) DNA: GCCTGTTGTGAGCCTCCTAACCCGTCTAACGAGATTGGGTCTTCATATGGCTCGAAGCGCGCGGTCAGTTCATGCTTATTCTTGTCTCCC,binding result,[1],no binding
same,binding result,ESAT-6 (monomer),no binding
same,Kd,CFP-10 (monomer) [2],21.5 nM
CSIR 2.21 (ssDNA) DNA: GCCTGTTGTGAGCCTCCTAACACACACGTAGCGCCTTGTTGAAGTATACTCAAAGCATTCTCCACGCGGGCATGCTTATTCTTGTCTCCC,binding result,CFP-10 (monomer) [3],binds
same,binding result,[1],no binding
same,binding result,ESAT-6 (monomer),no binding
same,binding result,[4],binds
CSIR 2.19 (ssDNA) DNA: GCCTGTTGTGAGCCTCCTAACTTCCAATAACGATACTTAAACCTGGTCTTTGCCAGTCAATGATAGCATCATGCTTATTCTTGTCTCCC,binding result,[1]; two predicted stem-loops,no binding
same,binding result,ESAT-6 (monomer); two predicted stem-loops,no binding
same,Kd,CFP-10 (monomer) [5],1.6 nM
CSIR 2.15 (ssDNA) DNA: GCCTGTTGTGAGCCTCCTAACTAATGTGGATGCTGCATCGTTAGTATTTCTAGCATGCAATATAGGCATGCATGCTTATTCTTGTCTCCC,binding result,CFP-10 (monomer) [6],binds
same,binding result,[1],no binding
same,binding result,ESAT-6 (monomer),no binding
same,binding result,[4],binds
CSIR 2.11 (ssDNA) DNA: GCCTGTTGTGAGCCTCCTAACCCCATCTTATACGTATATGGACTCATCTCGACCCCCGATAGGCTTGGTACATGCTTATTCTTGTCTCCC,binding result,[1]; three predicted stem-loops,no binding
same,binding result,ESAT-6 (monomer); three predicted stem-loops,no binding
same,Kd,CFP-10 (monomer) [7],8 nM
"CSIR 2.19 truncated (77-mer) (ssDNA, [none (12 nt removed from the 3' end, parent positions 1-77)]) DNA: GCCTGTTGTGAGCCTCCTAACTTCCAATAACGATACTTAAACCTGGTCTTTGCCAGTCAATGATAGCATCATGCTTA",binding result,[8],binds
same,binding result,CFP-10 (monomer) [9],binds
CSIR 2.9 (ssDNA) DNA: GCCTGTTGTGAGCCTCCTAACTCCGGTCTTCAACATGTCCAATCGAACTTCGGCGGAAATCCTTTACCTGCATGCTTATTCTTGTCTCCC,binding result,CFP-10 (monomer) [3],binds
same,binding result,[1],no binding
same,binding result,ESAT-6 (monomer),no binding
same,binding result,[4],binds
